From the nanobody polyreactivity screen of Harvey et al. (2022)

Test: yeast display, Sf9 membrane polyspecificity reagent, FACS + sequencing; frameworks hold sequencing errors
Procedure, shortened: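 After 36–48 hours of galactose induction, yeast (Saccharomyces cerevisiae BJ5465) displaying a synthetic nanobody library were stained at 4 °C for 1 hour with 10% biotinylated, detergent-solubilized Sf9 membrane reagent. Streptavidin microbeads enriched the stained cells before FACS sorting into low and high (top ~1%) gates on anti-HA and streptavidin fluorescence. Each clone's polyreactivity label reflects its gate of origin.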

| Sequence | polyreactivity (PSR sort gate) |
| --- | --- |
| QVQLVESGGGLVQAGGSLRLSCAASGFTFSGYDMGWYRQAPGKERELVAGISSVDHTYYADSVKGRFTISRDNAKNTVYLQMNSLKPEDTAVYYCAATLWPYYYVEYDYWGQGTEVTVSS | low polyreactivity |
| QVQLVESGGGLVQAGGSLRLSCAASGFTFSHYAMGWYRQAPGKEREVVADISRRGGRTYYADSVKGRFTISRDNAKNTVSLQMNSLKPEDTAVYYCAAPDESYSVWRLDGLDYWGQGTQVTVSS | high polyreactivity |
| QVQLVESGGGLVQAGGSLRLSCAASGFTFSHYPMGWYRQAPGKERELVASISRRCGTTYYADSVKGRFTISRDNAKNTVYLQMNSLKPEDTAVYYCAVDLYIYYREYDYWGQGTQVTVSS | high polyreactivity |
| QVQLVESGGGLVQAGGSLRLSCAASGFTFSINAMGWYRKAPGKERELVAGISWSGGITYYADSVKGRFTISRDNAKNTVYLQMNSLKPEDTAVYYCNTDYGLTTPVVWDDYWGQGTQVTVSS | low polyreactivity |
| QVQLVESGGGLVQAGGSLRLSCAASGFTFSINTMGWYRQAPGKEREFVAGISRSGGSTYYADSVKGRFTISRDNAKNTVYLQMNSLKPEDTAVYYCLKYYQGYDYWGQGTQVTVSS | high polyreactivity |
| QVQLVESGGGLVQAGGSLRLSCAASGFTFSKNTMGWYRQAPGKERELVAVITRGGGTYYADSVKGRFTISRDNAKNTVYLQMNSLKPEDTAVYYCAVKRNTAYRQAYYLDDYWGQGTQVTVSS | high polyreactivity |
| QVQLVESGGGLVQAGGSLRLSCAASGFTFSNYAMGWYRQAPGKERELVAAISKRGGSTYYADSVKGRFTISRDNAKNTVYLQRNSLKPEDTAVYYCAAYGGYIRRSVPVWGYYYWGQGTQVTVSS | high polyreactivity |
| QVQLVESGGGLVQAGGSLRLSCAASGFTFSNYAMGWYRQAPGKERELVAAISRSGGSTYYADSVKGRFTISRDNAKNTVYLQMNSLKPEDTAVYYCNADRYRVWYRRYDYWGQGTQVTVSS | high polyreactivity |
| QVQLVESGGGLVQAGGSLRLSCAASGFTFSPNAMGWYRQAHGKESELVAAIDWSGDRTYYADSVKGRFTISRDNAKKTVYLQINSLKPEDTAVYYCNVVRRSPGDYTYYYWGQGTQVTVSS | low polyreactivity |
| QVQLVESGGGLVQAGGSLRLSCAASGFTFSPNARGWYRQAPGKERELVAAISKGGSSTYYADSVKGRFTISRDNAKNTVYLQMNSLKPEDTAVYYCARPSTHKGYDYWGQGTQVTVSS | high polyreactivity |
| QVQLVESGGGLVQAGGSLRLSCAASGFTFSPYTMGWSRQAPGKERELVATIRYDGTSTYYADSVKGRFTISRDNAKNTVYLQMNSLKREDTAVYYCAAEIWRVYSTFYYWGQGTQVSVSS | low polyreactivity |
| QVQLVESGGGLVQAGGSLRLSCAASGFTFSQYAMGWYRQAPGKERELVAAISRSGGSTYYADSVKGRFTISRDNAKNTVYLQMNSLKPEDTAVYYCAAQPGRRAGRSGFDYWGQCTQVTVSS | high polyreactivity |
| QVQLVESGGGLVQAGGSLRLSCAASGFTFSRNAMGWYRQAPGKERELVAAIDSGGSTDYADSVKGRFTISRANAKKTVYLQMNSLKPEDTAVYYCAKASSATRYVQLRQDYDYWGQGTQVTVSS | low polyreactivity |
| QVQLVESGGGLVQAGGSLRLSCAASGFTFSRNAMGWYRQAPGKERELVAAITWSGGRTYYADSVKGRFTISRDNAKNTVYLQMNSLKPEDTAVYYCAARKYHLRSAYDYWGQGTQVTVSS | low polyreactivity |
| QVQLVESGGGLVQAGGSLRLSCAASGFTFSRYAMGWYRQAPGKERELVAAISLRGGRTYYADSVKGRFTISRDKTKNSVYLQMNSLKPEDTAVYYCNRDYRGPYYYWGQGSQVTVSS | high polyreactivity |
| QVQLVESGGGLVQAGGSLRLSCAASGFTFSRYAMGWYRQAPGKERELVAAITSRGGSTYYADSVKGRFTISRDNAKNTVYLQMNSLKPEDTAVYYCAARGWYATWLYYYWGQGTQVTVSS | high polyreactivity |

| Sequence | polyreactivity (PSR sort gate) |
| --- | --- |
| QVQLVESGGGLVQAGGSLRLSCAASGFTFSRYAMVWYRKAPGKDRELVAVISSSGSRTYYADSVKGRFSISRHNAKNTVHLQMNSLQPEDTAVYYGAAKSYTVTAYEYWGQGTQVTVSS | high polyreactivity |
| QVQLVESGGGLVQAGGSLRLSCAASGFTFSSDAMGWYRQAPGKERELVAAITWRGGTTYYADSVKGRFTISRDNAKNTVYLQMNSLKPEDTAVYYCAVDFKRVIRGSRWGDYWGQGTQVTVSS | high polyreactivity |
| QVQLVESGGGLVQAGGSLRLSCAASGFTFSSNAMGWYRQAPGKERELVAAISFNSTSTYYADSVKGRFTISRDNAKNTVYIQMNSLKPEDTAVYYCAKESPPAEGDSGYDYWGQGTQVTVSS | low polyreactivity |
| QVQLVESGGGLVQAGGSLRLSCAASGFTFSSYALGWSRQAPGKERELVAAISTRGGSTYYADSVKGRFTISRDNAKNTVYLQRNSLKPEDTADYYCATGGRGGRRYEYWGQGTQVTVSS | low polyreactivity |
| QVQLVESGGGLVQAGGSLRLSCAASGFTFSSYAMGWYRQAPGKERELVAAINWSGGSTYYADSVKGRFTISRDNAKNTVYLQMNSLKPEDTAVYYCATSVKDRYWVDYWGQGTQVTVSS | high polyreactivity |
| QVQLVESGGGLVQAGGSLRLSCAASGFTFSSYAMGWYRQAPGKERELVAAITQSGGRTYYADSVKGRFTISRDNAKNTVYLQMNSLKPEDTAVYSCAADVTLWYDYWGQGTQVTVSS | low polyreactivity |
| QVQLVESGGGLVQAGGSLRLSCAASGFTFSSYARGWYRQAPGKEREFVAAIRFSGGSTYYADSVKGRFTISRDNAMNTVYLQMNSLKPVDTAVYYCAKRWGIWPRGYYWGQGTQVSVSS | low polyreactivity |
| QVQLVESGGGLVQAGGSLRLSCAASGFTFSSYTMGWYRQAPGKEREFVAAISRRTGRTYYADSVKGRFTISRDYAKNTVYLQMNSLKPEDTAVFYCAADLYYYGFFWDFGDGFDYWGQGTQVTVSS | high polyreactivity |
| QVQLVESGGGLVQAGGSLRLSCAASGFTFSSYTMGWYRQAPGKERELVAAISRRTGRTYYADSVKGRFTISRDNAKNTVYLQMNSLKPEDTEVYYCAARPYWSYRRYDYWGQGTQVTVSS | high polyreactivity |
| QVQLVESGGGLVQAGGSLRLSCAASGFTFSTNAMGWYRPAPGKERELVAAISPDGGTYYADSVKGRFTISRDNAKNTVYLQMNSLIPEDTAVYYCAAVWGRGVWDLYDYWGQGTQVTVSS | low polyreactivity |
| QVQLVESGGGLVQAGGSLRLSCAASGFTFSTYAMGWYRQEPGKEREFVATISWRGTNTYYADSVKGRFTISRDNAKNTVYLQMNSLKPEDTAVYDCAARRRSGYGANDYWGQGTQVTVSS | high polyreactivity |
| QVQLVESGGGLVQAGGSLRLSCAASGFTFSVYAMGWSRQAPGKERELVAAITSDGITNYADSVKGRFTISRDNAKNTVYLQMNSLKPEDTAVYYCNADPGYVRGYDYWGQGTQVTVSS | low polyreactivity |
| QVQLVESGGGLVQAGGSLRLSCAASGFTFSVYAMGWYRQAPGKERELVADIDWSGGSTYYADSVKGRFTISRDNAKNTVYLQMNSLKPEDTAVYYCAADYYYPDSYVQGTSGEYWGQGTQVTVSS | low polyreactivity |
| QVQLVESGGGLVQAGGSLRLSCAASGFTFSVYAMGWYRQAPGKERELVASITNGGTTYYADSVKGRFTISRDNAKNTVYLQMNSLKPEDTAVYYCAAKLYSWYHKFVNPTYGYWGQGTQVTVSS | high polyreactivity |
| QVQLVESGGGLVQAGGSLRLSCAASGFTFSWNAMGWYRQAPGKEREFVAAITSSGGSTYADSVKGRFTISRDNAKNTVYLQMNSLKPEDTAVYYCAAGGFSQHGHGYWGQGTQVTVSS | high polyreactivity |
| QVQLVESGGGLVQAGGSLRLSCAASGFTFSYSAMGGYSQAPGKERELVAAISRSGSGTSYADSVKGRFTISRDNAKNTVYLQMTSLKPEDTAVYYCAARGGTTRYGNDYWGQGTQVTVSS | high polyreactivity |
